Test results: patent US20050065082

How the values were obtained:
[1] = target: GST-BMAL1 (N-terminal GST fusion protein of human BMAL1; BMAL1b was used)
[2] = target: GST-KIAA0596CT (N-terminal GST fusion protein of human KIAA0596CT, the C-terminal region, amino acids 639 to 1217, of KIAA0596) [GST: P08515]
[3] = target: T1, GST-BPL1 (N-terminal GST fusion protein of human BPL1, holocarboxylase synthetase)
T1 chain: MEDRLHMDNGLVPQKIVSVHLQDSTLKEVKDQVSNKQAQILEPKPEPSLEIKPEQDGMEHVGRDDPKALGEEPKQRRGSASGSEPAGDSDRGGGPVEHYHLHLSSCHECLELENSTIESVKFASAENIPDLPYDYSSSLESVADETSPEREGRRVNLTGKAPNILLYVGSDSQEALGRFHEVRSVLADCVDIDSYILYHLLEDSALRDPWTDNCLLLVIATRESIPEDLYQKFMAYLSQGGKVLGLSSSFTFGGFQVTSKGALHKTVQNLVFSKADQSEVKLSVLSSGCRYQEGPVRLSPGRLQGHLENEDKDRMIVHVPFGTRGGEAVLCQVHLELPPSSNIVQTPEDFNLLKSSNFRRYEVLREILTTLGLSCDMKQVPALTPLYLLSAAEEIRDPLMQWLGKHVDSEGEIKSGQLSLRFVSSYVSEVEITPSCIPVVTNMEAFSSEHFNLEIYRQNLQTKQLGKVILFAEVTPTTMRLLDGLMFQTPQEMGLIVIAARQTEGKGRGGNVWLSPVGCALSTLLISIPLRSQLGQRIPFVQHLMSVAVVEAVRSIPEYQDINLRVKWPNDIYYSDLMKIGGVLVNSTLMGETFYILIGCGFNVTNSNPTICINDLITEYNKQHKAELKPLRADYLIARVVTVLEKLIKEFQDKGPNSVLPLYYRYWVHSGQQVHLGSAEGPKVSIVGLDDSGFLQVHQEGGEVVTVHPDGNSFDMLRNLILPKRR

[4] = target: T2, GST-KIAA1491 complete (N-terminal GST-fusion protein of KIAA1491 complete)
T2 chain: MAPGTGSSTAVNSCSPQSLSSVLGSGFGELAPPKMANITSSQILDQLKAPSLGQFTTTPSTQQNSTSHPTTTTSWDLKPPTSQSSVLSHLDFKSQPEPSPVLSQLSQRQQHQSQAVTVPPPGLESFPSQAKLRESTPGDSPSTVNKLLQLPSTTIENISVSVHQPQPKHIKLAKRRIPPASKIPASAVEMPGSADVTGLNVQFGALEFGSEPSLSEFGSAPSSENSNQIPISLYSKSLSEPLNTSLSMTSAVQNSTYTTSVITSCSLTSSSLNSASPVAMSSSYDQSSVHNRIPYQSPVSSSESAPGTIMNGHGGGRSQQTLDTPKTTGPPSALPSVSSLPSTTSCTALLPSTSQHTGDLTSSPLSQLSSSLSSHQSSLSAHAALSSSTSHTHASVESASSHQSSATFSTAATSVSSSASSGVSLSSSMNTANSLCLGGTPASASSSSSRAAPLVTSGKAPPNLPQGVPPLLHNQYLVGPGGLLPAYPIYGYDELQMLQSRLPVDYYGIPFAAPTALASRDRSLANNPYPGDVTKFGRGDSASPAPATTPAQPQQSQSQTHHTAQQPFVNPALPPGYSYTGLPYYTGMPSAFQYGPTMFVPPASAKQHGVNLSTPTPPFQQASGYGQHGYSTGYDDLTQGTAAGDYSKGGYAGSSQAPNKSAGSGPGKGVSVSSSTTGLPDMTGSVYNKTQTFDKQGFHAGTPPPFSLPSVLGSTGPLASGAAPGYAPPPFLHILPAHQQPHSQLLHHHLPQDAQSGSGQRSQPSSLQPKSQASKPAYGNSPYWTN

[5] = target: GST (glutathione S-transferase) [GST: P08515]

Sequence of GST-BMAL1 (N-terminal GST fusion protein of human BMAL1; BMAL1b was used) (chain, as listed by the source): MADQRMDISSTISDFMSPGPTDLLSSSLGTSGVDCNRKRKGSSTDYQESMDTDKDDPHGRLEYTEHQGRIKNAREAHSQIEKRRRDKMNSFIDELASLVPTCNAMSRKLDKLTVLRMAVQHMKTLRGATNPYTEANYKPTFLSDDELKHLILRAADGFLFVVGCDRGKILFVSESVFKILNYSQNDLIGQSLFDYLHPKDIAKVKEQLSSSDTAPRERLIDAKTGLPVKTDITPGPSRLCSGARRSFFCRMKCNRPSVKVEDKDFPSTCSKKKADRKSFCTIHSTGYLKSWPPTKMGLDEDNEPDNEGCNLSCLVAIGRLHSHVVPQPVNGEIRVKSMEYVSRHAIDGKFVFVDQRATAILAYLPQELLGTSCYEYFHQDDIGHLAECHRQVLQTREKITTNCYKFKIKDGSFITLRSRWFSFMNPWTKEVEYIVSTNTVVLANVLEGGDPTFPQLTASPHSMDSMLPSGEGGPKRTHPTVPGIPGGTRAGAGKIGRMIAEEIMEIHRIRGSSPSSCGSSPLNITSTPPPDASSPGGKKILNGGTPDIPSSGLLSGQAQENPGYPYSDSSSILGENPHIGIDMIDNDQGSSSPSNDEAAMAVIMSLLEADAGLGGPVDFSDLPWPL

B1: His-JNK3 (activated human JNK3 (JNK3α1) with an N-terminal histidine-tag) (protein)
chain: MSLHFLYYCSEPTLDVKIAFCQGFDKQVDVSYIAKHYNMSKSKVDNQFYSVEVGDSTFTVLKRYQNLKPIGSGAQGIVCAAYDAVLDRNVAIKKLSRPFQNQTHAKRAYRELVLMKCVNHKNIISLLNVFTPQKTLEEFQDVYLVMELMDANLCQVIQMELDHERMSYLLYQMLCGIKHLHSAGIIHRDLKPSNIVVKSDCTLKILDFGLARTAGTSFMMTPYVVTRYYRAPEVILGMGYKENVDIWSVGCIMGEMVRHKILFPGRDYIDQWNKVIEQLGTPCPEFMKKLQPTVRNYVENRPKYAGLTFPKLFPDSLFPADSEHNKLKASQARDLLSKMLVIDPAKRISVDDALQHPYINVWYDPAEVEAPPPQIYDKQLDEREHTIEEWKELIYKEVMNSEEKTKNGVVKGQPSPSAQVQQ
Relative Strength (%) of the phosphorylated GST-c-Jun (1-79) band, 1.0 µg added protein (none added = 100) [1]: 15.3% | Relative Strength (%) of the phosphorylated GST-c-Jun (1-79) band, 2.0 µg added protein (none added = 100) [1]: 4.7% | phosphorylation of GST-BMAL1 by JNK3 (in vitro kinase assay, [γ-32P] ATP, autoradiography) [1]: the phosphorylation of GST-BMAL1 by JNK3 was observed ... the phosphorylation was dependent on the dose of JNK3 | Relative Strength (%) of the phosphorylated GST-c-Jun (1-79) band, 1.0 µg added protein (none added = 100) [2]: 70.6% | Relative Strength (%) of the phosphorylated GST-c-Jun (1-79) band, 2.0 µg added protein (none added = 100) [2]: 33.5% | Relative Strength (%) of the phosphorylated GST-c-Jun (1-79) band, 1.0 µg added protein (none added = 100) [3]: 81.6% | Relative Strength (%) of the phosphorylated GST-c-Jun (1-79) band, 2.0 µg added protein (none added = 100) [3]: 59.7% | phosphorylation of GST-BPL1 by JNK3 (in vitro kinase assay, [γ-32P] ATP, autoradiography) [3]: The phosphorylation of GST-BPL1 by JNK3 was observed. Since the phosphorylation was dependent on the dose of JNK3 | Relative Strength (%) of the phosphorylated GST-c-Jun (1-79) band, 1.0 µg added protein (none added = 100) [4]: 71.5% | Relative Strength (%) of the phosphorylated GST-c-Jun (1-79) band, 2.0 µg added protein (none added = 100) [4]: 67.1% | phosphorylation of GST-KIAA1491 complete by JNK3 (in vitro kinase assay, [γ-32P] ATP, autoradiography) [4]: GST-KIAA1491 complete were phosphorylated by JNK3 ... the phosphorylation was dependent on the dose of JNK3 | Relative Strength (%) of the phosphorylated GST-c-Jun (1-79) band, 1.0 µg added protein (none added = 100) [5]: 92.7% | Relative Strength (%) of the phosphorylated GST-c-Jun (1-79) band, 2.0 µg added protein (none added = 100) [5]: 93.6%
